{
  "source": "paper PMC11890623",
  "about": "“Pseudomonas aeruginosa acyl-CoA dehydrogenases and structure-guided inversion of their substrate specificity” (Nature Communications, 2025)",
  "key": {"[1]": {"target": "FadE1 (PA0506), fatty acyl-CoA dehydrogenase of Pseudomonas aeruginosa (Pseudomonas aeruginosa PAO1)", "experiment": "AUC; sedimentation at 50000 rpm, 20 °C; protein at 1 mg/mL in 20 mM Tris-HCl, 100 mM NaCl, 10 mM imidazole (pH 7.5); absorbance and interference scans; analysis with SEDFIT; His6 tags removed"}, "[2]": {"system": "T1, CCCCCCCCCCCCCCCC(=O)SCCNC(=O)CCNC(=O)[C@H](O)C(C)(C)COP(=O)(O)OP(=O)(O)OC[C@H]1O[C@@H](n2cnc3c(N)ncnc32)[C@H](O)[C@@H]1OP(=O)(O)O", "T1 construct": "full-length ORF, His6 tag removed by TEV", "experiment": "Michaelis-Menten kinetics of purified enzyme (KM)", "format": "biochemical, Pseudomonas aeruginosa", "conditions": "FAD"}, "[3]": {"system": "T2, CCCCCCCC(=O)SCCNC(=O)CCNC(=O)[C@H](O)C(C)(C)COP(=O)(O)OP(=O)(O)OC[C@H]1O[C@@H](n2cnc3c(N)ncnc32)[C@H](O)[C@@H]1OP(=O)(O)O", "T2 construct": "full-length ORF, His6 tag removed by TEV", "experiment": "purified protein", "format": "biochemical, Pseudomonas aeruginosa", "conditions": "FAD sandwiched between catalytic Glu441 and the FAD"}, "[4]": {"target": "FadE2 (PA0508), fatty acyl-CoA dehydrogenase of Pseudomonas aeruginosa (Pseudomonas aeruginosa PAO1)", "experiment": "AUC; sedimentation at 50000 rpm, 20 °C; protein at 1 mg/mL in 20 mM Tris-HCl, 100 mM NaCl, 10 mM imidazole (pH 7.5); absorbance and interference scans; analysis with SEDFIT; His6 tags removed"}},
  "data": [
    {"substance": "FadE1 (PA0506), fatty acyl-CoA dehydrogenase of Pseudomonas aeruginosa (enzyme)", "values": [
      {"measurement": "stoichiometry N", "setting": "[1]", "value": 2}
    ]},
    {"substance": "FadE1 (Pseudomonas aeruginosa PAO1)", "values": [
      {"measurement": "Km", "setting": "[2]", "value": "16.36 ± 2.09", "unit": "µM"},
      {"measurement": "Km", "setting": "[3]", "value": "12.29 ± 1.43", "unit": "µM"}
    ]},
    {"substance": "FadE2 (PA0508), fatty acyl-CoA dehydrogenase of Pseudomonas aeruginosa (enzyme)", "values": [
      {"measurement": "stoichiometry N", "setting": "[4]", "value": 2}
    ]}
  ]
}
